Target: W619_1-LOV, short LOV protein from Pseudomonas putida (Pseudomonas putida)
Experiment: crystal structure; apo-state; sitting drops grown in the dark, 100 mM MES pH 6.0-6.3, 1 M ammonium sulfate, 14 °C; space group I4(1), two molecules per asymmetric unit

W619_1-LOV, short LOV protein from Pseudomonas putida (natural protein)
stoichiometry N: 2

Reference: paper PMC5314338, “Structure of a LOV protein in apo-state and implications for construction of LOV-based optical tools” (Scientific Reports, 2017)
